Patent US20230029835A1 (KEYMED BIOSCIENCES, published 2023)
Read-outs that look alike come from different tables or passages of the source.

T1: Cynomolgus macaques TSLP recombinant protein (Cynomolgus macaques, UniProt Q969D9 29-159 (human entry), limits assumed, biotinylated in the blocking assays (sites not given))
T1 construct: also called cyTSLP; biotinylated Cynomolgus macaques TSLP protein
T1 chain: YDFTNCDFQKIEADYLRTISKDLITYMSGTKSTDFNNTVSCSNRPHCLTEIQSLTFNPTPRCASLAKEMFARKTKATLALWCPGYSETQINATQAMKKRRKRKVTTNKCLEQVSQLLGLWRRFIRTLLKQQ


Experiments:
[1] = target: T2, human TSLP recombinant protein (human, UniProt Q969D9 29-159, biotinylated in the blocking and cell-binding assays (sites not given)); assay: cell-based or functional assay
[2] = target: T2, human TSLP recombinant protein; assay: ELISA on coated human TSLP
Method: (§1) The plate was washed three times with PBS and blocked by adding 200 μL/well of PBS containing 2% skim milk for 1 hour. […] After washing with PBST and PBS three times, respectively, 100 μL of TMB substrate was added to each well for color development at 37° C. for 10 minutes, the reaction was terminated with 50 μL of 2M sulfuric acid solution per well, and the absorbance was read at a wavelength of 450 nm.

[3] = target: T1, Cynomolgus macaques TSLP recombinant …; assay: ELISA on coated cynomolgus TSLP
Method: as §1

[4] = target: T2, human TSLP recombinant protein; assay: competition ELISA, biotin-human TSLP to coated human TSLPR-Fc
Method: (§2) Human TSLPR recombinant protein was coated onto a 96-well microtiter plate at 1 μg/mL in carbonate buffer overnight at 4° C. The plate was washed three times with PBS and blocked by adding 200 μL/well of PBS containing 2% skim milk for 1 hour. […] The 96-well plate was washed three times with PBS, and 100 μL of the incubated mixture was added to each well and incubated for 1 hour at room temperature. After washing with PBST and PBS three times, respectively, 100 μL of SA-HRP was added to each well and incubated at room temperature for 30 minutes in the dark. After washing with PBST and PBS three times, respectively, 100 μL of TMB substrate was added to well for color development at 37° C. for 10 minutes, the reaction was terminated with 50 μL of 2M sulfuric acid solution per well, and the absorbance was read at a wavelength of 450 nm.

[5] = target: T2, human TSLP recombinant protein; assay: SPR BIAcore T200, antibody captured on Protein A, human TSLP injected
Method: After each injection cycle, the Protein A chip surface was regenerated with regeneration buffer 10 mM glycine (pH 2.0) at a flow rate of 30 μL/min.
The association rate constant (ka) and dissociation rate constant (kd) and equilibrium dissociation constant KD were analyzed by fitting the resulting data to a Langmuir 1:1 kinetics theoretical model using BIAevaluation software.

[6] = target: T1, Cynomolgus macaques TSLP recombinant …; assay: competition ELISA, biotin-cynomolgus TSLP to coated cynomolgus TSLPR-Fc
Method: Cynomolgus macaques TSLPR recombinant protein was coated onto a 96-well microtiter plate at 1 μg/mL in carbonate buffer overnight at 4° C. The plate was washed three times with PBS and blocked by adding 200 μL/well of PBS containing 2% skim milk for 1 hour. […] The 96-well plate was washed three times with PBS, and 100 μL of the incubated mixture was added to each well and incubated for 1 hour at room temperature. After washing with PBST and PBS three times, respectively, 100 μL of SA-HRP was added to each well and incubated at room temperature for 30 minutes in the dark. After washing with PBST and PBS three times, respectively, 100 μL of TMB substrate was added to well for color development at 37° C. for 10 minutes, the reaction was terminated with 50 μL of 2M sulfuric acid solution per well, and the absorbance was read at a wavelength of 450 nm.

[7] = target: T2, human TSLP recombinant protein; assay: cell-based or functional assay; remark: listed apart in the source
[8] = target: T2, human TSLP recombinant protein; assay: cell-based or functional assay; remark: listed apart in the source
[9] = target: T2, human TSLP recombinant protein; assay: competition ELISA, biotin-human TSLP to coated human TSLPR-Fc; remark: listed apart in the source
Method: as §2

[10] = target: T1, Cynomolgus macaques TSLP recombinant …; assay: competition ELISA, biotin-cynomolgus TSLP to coated cynomolgus TSLPR-Fc
Method: Cynomolgus macaques TSLPR recombinant protein was coated onto a 96-well microtiter plate at 1 g/mL in carbonate buffer overnight at 4° C. The plate was washed three times with PBS and blocked by adding 200 μL/well of PBS containing 2% skim milk for 1 hour. […] The 96-well plate was washed three times with PBS, and 100 μL of the incubated mixture was added to each well and incubated for 1 hour at room temperature. After washing with PBST and PBS three times, respectively, 100 μL of SA-HRP was added to each well and incubated at room temperature for 30 minutes in the dark. After washing with PBST and PBS three times, respectively, 100 μL of TMB substrate was added to well for color development at 37° C. for 10 minutes, the reaction was terminated with 50 μL of 2M sulfuric acid solution per well, and the absorbance was read at a wavelength of 450 nm.

[11] = target: T2, human TSLP recombinant protein; assay: flow cytometry competition, biotin-human TSLP to Ba/F3-hTSLPR-IL7Rα cells
Method: Ba/F3-hTSLPR-IL7Rα cells were washed three times with PBS, centrifuged at 300 g for 3 minutes, and blocked with 3% BSA/PBS for 30 minutes. The cells were resuspended and added to a 96-well U-plate at 5×10⁴/well.

[12] = target: T2, human TSLP recombinant protein; assay: ELISA on coated human TSLP; remark: listed apart in the source
Method: as §1

[13] = target: T1, Cynomolgus macaques TSLP recombinant …; assay: ELISA on coated cynomolgus TSLP
Method: as §1

[14] = target: T2, human TSLP recombinant protein; assay: SPR BIAcore T200, antibody captured on Protein A, human TSLP injected; remark: listed apart in the source
Method: (§3) After each injection cycle, the Protein A chip surface was regenerated with regeneration buffer 10 mM glycine (pH 2.0) at a flow rate of 30 μL/min. The association rate constant (ka) and dissociation rate constant (kd) and equilibrium dissociation constant KD were analyzed by fitting the resulting data to a Langmuir 1:1 kinetics theoretical model using BIAevaluation software.

[15] = target: T1, Cynomolgus macaques TSLP recombinant …; assay: SPR BIAcore T200, antibody captured on Protein A, cynomolgus TSLP injected
Method: as §3

Row | Inhibition IC50 of STAT5 reporter gene [1] | EC50 [2] | EC50 [3] | IC50 [4] | Kd [5] | koff [5] | kon [5] | IC50 [6] | Inhibition of Cell Proliferation IC50 [7] | STAT5 signal inhibition IC50 [8] | IC50 [9] | IC50 [10] | IC50 [11] | EC50 [12] | EC50 [13] | Binder | further results
1 | 9610 pM | 580 pM | 730 pM | 1350 pM | 20.4 pM | 8.77e-05 s⁻¹ | 4.31e+06 M⁻¹ s⁻¹ | 310 pM |  |  |  |  |  |  |  | 79D6 chimeric antibody (antibody, V domains shown) VH: QVQLQQSGAELVMPGASVKMSCKASGYTFTGYWMHWVKQRPGQGLEWIGTIDNSDSDTTYNQKFKGKVTLTVDESSSTAYMQLSSLTSEDSAVYYCARSVDGYLDYWGQGTTLTVSS VL: DIQMIQSPASLSASVGETVTITCRASENIYSYLAWYQQIQGKSPQLLVYYAKTLPEGVPSRFSGSGSGTQFSLKINSLQPEDFGSYYCQHHYGTPWTFGGGTKLEIK | 
2 |  |  |  |  |  |  |  |  | 58900 pM | 4920 pM | 1950 pM | 1600 pM | 360 pM |  |  | Murine anti-39G5 (mAb39G5) (antibody, V domains shown, also called murine antibody 39G5) VH: QVQLLQSGPQLVRPGASVKISCKASGYSFISYWIHWVKQRPGQGLEWIGIIDPSDSDTSLNQKFKDKATLTVDKSSTTAYIQLSSPTSEDSAVYYCARSLDGYYDYWGQGTTLTVSS VL: DIQMTQSPASLSASVGETVTITCRASENIYSYLAWYQQKQGKSPQLLVYNARTLPEGVPSRFSGSGSGTQFSLKINSLQPEDFGIYYCQHHYTTPWTFGGGTKLEIK | 
3 |  |  |  |  |  |  |  |  | 30700 pM | 1140 pM | 1980 pM | 470 pM | 270 pM |  |  | Murine anti-71G4 (mAb71G4) (antibody, V domains shown, also called murine antibody 71G4) VH: QVQLQQSGAELVMPGASVKMSCKASGYTFTDYWMHWVKQRPGQGLEWIGTIDNSDSDTTYNQKFKGKVTLTVDESSSTAYMQLSSLTSEDSAVYYCARSVDGYLDYWGQGTTLTVSS VL: EIQMTQSPASLSASVGETVTITCRTSENIYSYLAWYQQKQGKSPQLLVYFAKTLTDGVPSRLSGSGSGTQFSLKINSLQPEDFGSYYCQHHYGTPWTFGGGTKLEIK | 
4 |  |  |  |  |  |  |  |  | 46200 pM |  | 2000 pM | 1320 pM | 330 pM | 170 pM | 270 pM | Ab20 (antibody, V domains shown, Humanized; also called h71G4VHv2/h71G4VKv1) VH: QVQLVQSGAEVKKPGSSVKVSCKASGYTFTDYWMHWVRQAPGQGLEWMGTIDNSDSDTTYNQKFQGRVTLTVDTSTSTAYMELSSLRSEDTAVYYCARSVDGYLDYWGQGTLVTVSS VL: DIQMTQSPSSLSASVGDRVTITCRTSENIYSYLAWYQQKPGKAPKLLIYFAKTLTDGVPSRFSGSGSGTDFTLTISSLQPEDFATYYCQHHYGTPWTFGQGTKVEIK | 
5 |  |  |  |  |  |  |  |  |  |  | 2740 pM | 1760 pM | 450 pM | 270 pM | 650 pM | Ab19 (antibody, V domains shown, Humanized; also called h71G4VHv1/h71G4VKv1) VH: QVQLVQSGAEVKKPGSSVKVSCKASGYTFTDYWMHWVRQAPGQGLEWMGTIDNSDSDTTYNPSFQGHVTISADKSISTAYLQWSSLKASDTAMYYCARSVDGYLDYWGQGTLVTVSS VL: DIQMTQSPSSLSASVGDRVTITCRTSENIYSYLAWYQQKPGKAPKLLIYFAKTLTDGVPSRFSGSGSGTDFTLTISSLQPEDFATYYCQHHYGTPWTFGQGTKVEIK | 
6 |  |  |  |  |  |  |  |  | 178000 pM |  | 2180 pM | 1080 pM | 360 pM | 280 pM | 540 pM | Ab21 (antibody, V domains shown, Humanized; also called h71G4VHv3/h71G4VKv1) VH: QVQLVQSGAEVKKPGSSVKVSCKASGYTFTDYWMHWVRQAPGQGLEWMGTIDNSDSDTTYNQKFQGRVTMTRDTSTSTVYMELSSLRSEDTAVYYCARSVDGYLDYWGQGTLVTVSS VL: DIQMTQSPSSLSASVGDRVTITCRTSENIYSYLAWYQQKPGKAPKLLIYFAKTLTDGVPSRFSGSGSGTDFTLTISSLQPEDFATYYCQHHYGTPWTFGQGTKVEIK | 
7 |  |  |  |  |  |  |  |  | 1040 pM | 150 pM | 2010 pM | 1630 pM | 360 pM | 220 pM | 1370 pM | Ab24 (antibody, V domains shown, Humanized; also called h39G5VHv5/h71G4VKv1; h39G5VHv5/h71G4VKv1 hIgG1) VH: QVQLVQSGAEVKKPGSSVKVSCKASGYTFTDYWMHWVRQAPGQGLEWMGIIDPSDSDTSLNQKFQGRVTLTVDTSTSTAYMELSSLRSEDTAVYYCARSLDGYYDYWGQGTLVTVSS VL: DIQMTQSPSSLSASVGDRVTITCRTSENIYSYLAWYQQKPGKAPKLLIYFAKTLTDGVPSRFSGSGSGTDFTLTISSLQPEDFATYYCQHHYGTPWTFGQGTKVEIK | Kd [14]: 0.0234 pM; koff [14]: 3.99e-08 s⁻¹; kon [14]: 1.7e+06 M⁻¹ s⁻¹; Kd [15]: 0.179 pM; koff [15]: 2.85e-07 s⁻¹; kon [15]: 1.59e+06 M⁻¹ s⁻¹
8 |  |  |  |  |  |  |  |  | 1500 pM | 180 pM | 1660 pM | 690 pM | 390 pM | 180 pM | 950 pM | Ab26 (antibody, V domains shown, Humanized; also called h39G5VHv10/h71G4VKv1; h39G5VHv10/h71G4VKv1 hIgG1) VH: QVQLVQSGAEVKKPGSSVKVSCKASGYTFTDYWMHWVRQAPGQGLEWMGIIDPSDSDTSLNQKFQGRVTITADTSTSTAYMELSSLRSEDTAVYYCARSLDGYYDYWGQGTLVTVSS VL: DIQMTQSPSSLSASVGDRVTITCRTSENIYSYLAWYQQKPGKAPKLLIYFAKTLTDGVPSRFSGSGSGTDFTLTISSLQPEDFATYYCQHHYGTPWTFGQGTKVEIK | Kd [14]: 2.03 pM; koff [14]: 2.79e-06 s⁻¹; kon [14]: 1.37e+06 M⁻¹ s⁻¹; Kd [15]: 0.308 pM; koff [15]: 3.82e-07 s⁻¹; kon [15]: 1.24e+06 M⁻¹ s⁻¹
9 | 9780 pM | 260 pM | 470 pM | 1420 pM | 26 pM | 8.36e-05 s⁻¹ | 3.22e+06 M⁻¹ s⁻¹ | 730 pM |  |  |  |  |  |  |  | 76A8 chimeric antibody (antibody, V domains shown) VH: QVQLQQSGPQLVRPGASVKISCKASGYSFTSYWMHWVKQRPGQGLEWIGLIDPSDSETGLNQRFKDKATLTVDNPSSTAYMQLSSPTSEDSAVYYCARSLDGYYDYWGQGTTLTVSS VL: DIQMIQSPASLSASVGETVTITCRASGNIHNYLAWYQQKQGKSPQLLVYNAKTLADGVPSRFSGSGSGTQYSLKINSLQPEDFGSYYCQHFWSTPWTFGGGTRLEIK | 
10 | 13600 pM | 150 pM | 570 pM | 1800 pM | 18.5 pM | 0.000123 s⁻¹ | 6.62e+06 M⁻¹ s⁻¹ | 1150 pM |  |  |  |  |  |  |  | 80E11 chimeric antibody (antibody, V domains shown) VH: QVQLQQSGPQLVRPGASVKISCKASGYSFTSYWMHWVKQRPGQGLEWIGVIDPSDSETILNQKFKDKATLTVDKSSSTAYMQFSSPTSEDSAVYYCARSLDGYYDYWGQGTTLTVSS VL: DIQMTQSPASLSASVGETVTITCRAGENIYSYLAWYQQKQGKSPQLLVYNAKTLAEGVPSRFSGSASGTQFSLKINSLQPEDFGSYYCQHFWGTPWAFGGGTRLEIK | 
11 | 5790 pM | 340 pM | 550 pM | 2580 pM | 22.4 pM | 0.000108 s⁻¹ | 4.82e+06 M⁻¹ s⁻¹ | 540 pM |  |  |  |  |  |  |  | 80B12 chimeric antibody (antibody, V domains shown) VH: QVQLQQSGPQLVRPGASVKISCKASGYSFTTYWMHWVKQRPGQGLEWIGLIDPSDGEAGLNQNFKDKATLTVDISSRTAYMQISSPTSEDSAVYFCARSLDGYYDYWGQGTTLTVSS VL: DIQMTQSPASLSASVGETVTITCRASEDIYSYLAWYQQKQGKSPQLLVYNAKTLAEGVPSRFSGSGSGTQFSLKINSLQPEDFGSYYCQHFWSTPWTFGGGTKLELK | 
